Source: doi:10.1101/2023.03.15.532789
pKd: −log10 of the molar value.

Experiments:
[1] = target: hDLG1 PDZ1 domain (human) (UniProt Q12959); experiment: NMR titration
[2] = target: hDLG1 PDZ1 domain (human) (UniProt Q12959); experiment: ITC
[3] = target: hDLG1 PDZ2 domain (human) (UniProt Q12959); experiment: ITC
hDLG1 PDZ2 domain (human), sequence (Q12959 whole entry, the tested form may be a part): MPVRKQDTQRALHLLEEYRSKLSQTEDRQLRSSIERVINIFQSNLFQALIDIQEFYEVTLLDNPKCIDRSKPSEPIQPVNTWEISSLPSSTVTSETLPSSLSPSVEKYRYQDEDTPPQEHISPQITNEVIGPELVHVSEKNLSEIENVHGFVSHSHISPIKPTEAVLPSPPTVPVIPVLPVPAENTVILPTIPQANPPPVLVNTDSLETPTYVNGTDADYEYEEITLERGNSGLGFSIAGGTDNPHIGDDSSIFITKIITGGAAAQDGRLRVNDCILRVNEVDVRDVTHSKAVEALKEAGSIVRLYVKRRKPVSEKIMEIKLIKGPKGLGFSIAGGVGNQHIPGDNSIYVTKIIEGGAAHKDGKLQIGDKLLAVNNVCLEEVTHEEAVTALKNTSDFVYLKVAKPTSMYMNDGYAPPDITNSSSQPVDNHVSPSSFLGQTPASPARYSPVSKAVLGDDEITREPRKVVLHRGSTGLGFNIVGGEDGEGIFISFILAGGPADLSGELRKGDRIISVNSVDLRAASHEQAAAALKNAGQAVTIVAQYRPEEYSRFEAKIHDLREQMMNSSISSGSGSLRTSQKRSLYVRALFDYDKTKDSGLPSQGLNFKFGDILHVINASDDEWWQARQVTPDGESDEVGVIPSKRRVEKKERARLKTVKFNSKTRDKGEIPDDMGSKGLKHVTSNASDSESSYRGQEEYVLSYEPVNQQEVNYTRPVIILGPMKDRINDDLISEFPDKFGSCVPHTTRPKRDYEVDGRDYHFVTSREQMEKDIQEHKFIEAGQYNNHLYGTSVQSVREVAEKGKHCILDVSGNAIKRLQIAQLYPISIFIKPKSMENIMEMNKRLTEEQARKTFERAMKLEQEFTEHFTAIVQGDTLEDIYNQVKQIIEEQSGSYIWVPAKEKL

hDLG1 PDZ1 domain (human), sequence (Q12959 whole entry, the tested form may be a part): as above

Row | Substance | pKd [1] | pKd [2] | dH [2] | stoichiometry N [2] | pKd [3] | dH [3] | stoichiometry N [3]
1 | C-terminally amidated Tax-1 peptide (Tax-1mod) | 3.02 |  |  |  |  |  | 
2 | Tax-1 10-mer peptide (H-…-OH) |  | 5.57 | -8 kcal/mol | 1.03 | 6.05 | -10.4 kcal/mol | 0.99
